The values below come from paper PMC11591715 (2024).

Assay in all cases: BLI
For orientation: BLI is a label-free optical method that tracks binding on a fibre tip over time.

For assay [1], the target named is T1, m801.3 (anti-EpCAM-IL-2v immunocytokine, 1 anti-EpCAM Fab + 1 IL-2v, IL-2v fused at the N-terminus of the Fc … ( | human, UniProt P60568 21-153, F42A | Y45A | L72G)).
Assay [2] concerns the target m801.2 (anti-EpCAM-IL-2v immunocytokine, 2 anti-EpCAM Fab + 1 IL-2v, IL-2v fused at the C-terminus of IgG1 Fc) (human | , UniProt P60568 21-153, F42A | Y45A | L72G).
The target in assay [3] is T1, m801.3 (anti-EpCAM-IL-2v …). The source holds these as a separate data set.

B1: IL-2 receptor β subunit (IL-2Rβ) (receptor)
chain: AVNGTSQFTCFYNSRANISCVWSQDGALQDTSCQVHAWPDRRRWNQTCELLPVSQASWACNLILGAPDSQKLTTVDIVTLRVLCREGVRWRVMAIQDFKPFENLRLMAPISLQVVHVETHRCNISWEISQASHYFERHLEFEARTLSPGHTWEEAPLLTLKQKQEWICLETLTPDTQYEFQVRVKPLQGEFTTWSPWSQPLAFRTKPAALGKDTIPWLGHLLVGLSGAFGFIILVYLLINCRNTGPWLKKVLKCNTPDPSKFFSQLSSEHGGDVQKWLSSPFPSSSFSPGGLAPEISPLEVLERDKVTQLLLQQDKVPEPASLSSNHSLTSCFTNQGYFFFHLPDALEIEACQVYFTYDPYSEEDPDEGVAGAPTGSSPQPLQPLSGEDDAYCTFPSRDDLLLFSPSLLGGPSPPSTAPGGSGAGEERMPPSLQERVPRDWDPQPLGPPTPGVPDLVDFQPPPELVLREAGEEVPDAGPREGVSFPWSRPPGQGEFRALNARLPLNTDAYLSLQELQGQDPTHLV
modifications: biotin (biotinylated antigen)
The koff is a measure of how fast the partners let go of each other. A word on the Kd: it is the concentration at which binding is half-saturated. Regarding B1, the koff in assay [1] is 0.00784 s⁻¹; in assay [2], 0.00412 s⁻¹. In addition, the dissociation constant Kd in assay [3] is 55.6 nM.
